Positions count from the first letter of the chain named. In names and notes the source's numbering stands.
T1: H3(1-15)K9me3-FAM peptide (C-terminally fluorescein-labelled)
T1 chain: ARTKQTARKSTGGKA

T2: FAM-H3(1-15)K9me3 peptide (N-terminally fluorescein-labelled)
T2 chain: ARTKQTARKSTGGKA

T3: H3(1-15)unmodified-FAM peptide (C-terminally fluorescein-labelled)
T3 chain: ARTKQTARKSTGGKA

T4: FAM-H3(1–15)K9me3 peptide
T4 chain: ARTKQTARKSTGGKA

B1: hTTD-PHD module carrying the nine amino acid insertion of mLinker 2 V1 (domain or fragment)
chain: MWDETELGLYKVNEYVDARDTNMGAWFEAQVVRVTRKAPSRDEPCSSTSRPALEEDVIYHVKYDDYPENGVVQMNSRDVRARARTIIKWQDLEVGQVVMLNYNPDNPKERGFWYDAEISRKRETRTARELYANVVLGDDSLNDCRIIFVDEVFKIERPGEGSPMVDNPMRPPPALRNTGKSGPSCKHCKDDVNRLCRVCACHLCGGRQDPDKQLMCDECDMAFHIYCLDPPLSSVPSEDEWYCPECRNDASEVVLAGE
modifications: not checked
B2: hTTD-PHD, mLinker2 V1* (domain or fragment)
chain: B1 chain
modifications: not checked
B3: mTTD-PHD V1 P293A; P294A; P295A (protein)
chain: VWEDTDLGLYKVNEYVDVRDNIFGAWFEAQVVQVQKRALSEDEPCSSSAVKTSEDDIMYHVKYDDYPEHGVDIVKAKNVRARARTVIPWENLEVGQVVMANYNVDYPRKRGFWYDVEICRKRQTRTARELYGNIRLLNDSQLNNCRIMFVDEVLMIELPKERRPLIASPSQAAAALRNTGKSGPSCRFCKDDENKPCRKCACHVCGGREAPEKQLLCDECDMAFHLYCLKPPLTSVPPEPEWYCPSCRTDSSEVVQAGE
B4: mTTD-PHD V1 K302A; S303A (protein)
chain: B3 chain with A172P, A173P, A174P, K181A, S182A
B5: mTTD-PHD V1 R298A (protein)
chain: B3 chain with A172P, A173P, A174P, R177A
B6: hTTD-PHD (domain or fragment)
chain: MWDETELGLYKVNEYVDARDTNMGAWFEAQVVRVTRKAPSRDEPCSSTSRPALEEDVIYHVKYDDYPENGVVQMNSRDVRARARTIIKWQDLEVGQVVMLNYNPDNPKERGFWYDAEISRKRETRTARELYANVVLGDDSLNDCRIIFVDEVFKIERPGEGSPMVDNPMRRKSGPSCKHCKDDVNRLCRVCACHLCGGRQDPDKQLMCDECDMAFHIYCLDPPLSSVPSEDEWYCPECRND
modifications: not checked

Tests used:
[1] = molecular target: T1, H3(1-15)K9me3-FAM peptide (C-terminally …); assay: fluorescence polarisation; FAM-labelled H3(1-15) peptide, recombinant protein titrated; RT; as described (ref. 28)
[2] = molecular target: T2, FAM-H3(1-15)K9me3 peptide (N-terminally …); assay: as above
[3] = molecular target: T3, H3(1-15)unmodified-FAM peptide …; assay: as above
[4] = molecular target: T4, FAM-H3(1–15)K9me3 peptide; assay: fluorescence polarisation; FAM-labelled H3(1–15) peptide, recombinant protein titrated; room temperature; as described in ref. 28
[5] = molecular target: T4, FAM-H3(1–15)K9me3 peptide; assay: fluorescence polarization; settings: chain shown with the change; read at the highest protein concentration of the titration, about 50 µM on the x axis; parent: est. 0.28; read off a plot

Binder | Kd [4] [µM] | response (fraction bound) [5] | other results
B1 |  |  | Kd [1]: 6.9 µM; Kd [2]: > 50 µM; Kd [3]: 4.5 µM
B2 | > 100 |  | 
B3 |  | 0.87 | 
B4 |  | 0.2 | 
B5 |  | 0.97 | 
B6 | 16.2 |  | 

Source: PMC7430637
